We go through 2 molecules from patent US20230285589A1, “LIPOSOME COMPLEX FOR CANCER TREATMENT, COMPRISING NOVEL CD47 BINDER AND POLYNUCLEOTIDE” (priority 2020, published 2023).

One assay concerns the target recombinant CD47 protein (Homo sapiens, UniProt Q08722). The assay is described as follows: SPR, CD47 conjugated to CM5 chip. Conditions: 250 RU CD47, 1:1 binding model. As for the experimental part:
Specifically, the recombinant CD47 protein was conjugated to the surface of the CM5 chip by a target SPR reaction of 250 RU through an EDC-NHS reaction to be used, and for HBS-P, the sensogram obtained through a process of association for 3 minutes and dissociation for 10 minutes at a flow rate of 30 μL/minutes was analyzed with the BiaEvaluation software using a 1:1 binding model and global fitting.

The nature of assay [1]: 5'-nucleotidase preferred substrate (Km), dTMP. Format: biochemical. Conditions: according to Table 4.

Sequence of recombinant CD47 protein (Q08722 19-323): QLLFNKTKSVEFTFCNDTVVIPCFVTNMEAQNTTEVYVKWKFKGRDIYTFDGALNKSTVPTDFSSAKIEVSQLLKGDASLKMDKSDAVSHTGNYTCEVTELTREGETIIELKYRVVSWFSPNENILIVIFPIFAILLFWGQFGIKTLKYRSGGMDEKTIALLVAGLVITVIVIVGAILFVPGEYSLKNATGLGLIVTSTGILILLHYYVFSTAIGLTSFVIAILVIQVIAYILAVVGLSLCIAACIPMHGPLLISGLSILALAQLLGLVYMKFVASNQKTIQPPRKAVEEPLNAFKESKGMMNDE

B1: SV4: CD47 binder of SEQ ID NO: 2; SV1 with lysines at positions 11 and 104 substituted with leucine (protein)
chain: MEEELQIIQPDLSVSVAAGESAILHCTITSLFPVGPIQWFRGAGPARVLIYNQRQGPFPRVTTVSETTKRENMDFSISISNITPADAGTYYCIKFRKGSPDTEFLSGAGTELSVRAKPS
modifications: CD47 binder SV4
With B1, in the assay with recombinant CD47 protein, the ka worked out at 164000 M⁻¹ s⁻¹ and the kd came to 0.000275 s⁻¹.

B2: NT5M: Human mitochondrial 5′-deoxyribonucleotidase (SEQ ID NO: 32) (protein)
chain: MGGRALRVLVDMDGVLADFEGGFLRKFRARFPDQPFIALEDRRGFWVSEQYGRLRPGLSEKAISIWESKNFFFELEPLPGAVEAVKEMASLQNTDVFICTSPIKMFKYCPYEKYAWVEKYFGPDFLEQIVLTRDKTVVSADLLIDDRPDITGAEPTPSWEHVLFTACHNQHLQLQPPRRRLHSWADDWKAILDSKRPC
modifications: NT5M
Take B2: the “affinity for dTMP, times lower compared to T001” value in assay [1] was found to be 30 times.
